Source: publication PMC11169033

Substrate: CN(C)c1ccc(/C=C/c2cc[n+](C)cc2)cc1
Assay: saturation of fluorescent uptake in hOCT2-HEK293 cells (affinity, control condition)
Format: cell-based, Homo sapiens

B1: human organic cation transporter 2 (hOCT2) (Homo sapiens) (protein)
chain: MPTTVDDVLEHGGEFHFFQKQMFFLLALLSATFAPIYVGIVFLGFTPDHRCRSPGVAELSLRCGWSPAEELNYTVPGPGPAGEASPRQCRRYEVDWNQSTFDCVDPLASLDTNRSRLPLGPCRDGWVYETPGSSIVTEFNLVCANSWMLDLFQSSVNVGFFIGSMSIGYIADRFGRKLCLLTTVLINAAAGVLMAISPTYTWMLIFRLIQGLVSKAGWLIGYILITEFVGRRYRRTVGIFYQVAYTVGLLVLAGVAYALPHWRWLQFTVSLPNFFFLLYYWCIPESPRWLISQNKNAEAMRIIKHIAKKNGKSLPASLQRLRLEEETGKKLNPSFLDLVRTPQIRKHTMILMYNWFTSSVLYQGLIMHMGLAGDNIYLDFFYSALVEFPAAFMIILTIDRIGRRYPWAASNMVAGAACLASVFIPGDLQWLKIIISCLGRMGITMAYEIVCLVNAELYPTFIRNLGVHICSSMCDIGGIITPFLVYRLTNIWLELPLMVFGVLGLVAGGLVLLLPETKGKALPETIEEAENMQRPRKNKEKMIYLQVQKLDIPLN
notes: hOCT2 stably expressed in HEK293 cells
Km: 20.5 µM
